Earlier results on one molecule are cited in patent publication US11414673B2, “Hypersensitive ABA receptors having modified PP2C-binding interfaces” (THE REGENTS OF THE UNIVERSITY OF CALIFORNIA, priority 2017, dated 2022).

The test system of this series is ABA responses. The note with it: Pizzio et al., Plant Physiol. 163, 441-455 (2013).

B1: PYL4^A194T: PYL4 ABA receptor with A194T mutation in its carboxyl terminus, described by Pizzio et al. (protein, UniProt O80920 1-207, looked up, variant A194T)
Abscisic acid receptor PYL4: MLAVHRPSSAVSDGDSVQIPMMIASFQKRFPSLSRDSTAARFHTHEVGPNQCCSAVIQEISAPISTVWSVVRRFDNPQAYKHFLKSCSVIGGDGDNVGSLRQVHVVSGLPAASSTERLDILDDERHVISFSVVGGDHRLSNYRSVTTLHPSPISGTVVVESYVVDVPPGNTKEETCDFVDVIVRCNLQSLAKITENTAAESKKKMSL
As to B1, the “ABA concentration needed to elicit measured ABA responses, in comparison to wild type PYL4” value is on record as “requires lower concentrations of ABA”.
